This note sets out measurements from article PMC3103399 (Molecular Biology of the Cell, 2011).

The assay concerns the target T1, GST-nephrin-CD (residues 1102–1252) (rat, UniProt Q9R044 1102-1252).
T1 sequence (looked up): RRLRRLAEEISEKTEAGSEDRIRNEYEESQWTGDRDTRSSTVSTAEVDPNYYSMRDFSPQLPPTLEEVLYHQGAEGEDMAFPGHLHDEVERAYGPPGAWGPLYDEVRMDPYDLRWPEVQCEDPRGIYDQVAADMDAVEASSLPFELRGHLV
Nature of the assay: pull-down.

Non-standard residues stand in square brackets, D forms with d. No end group written: not given here. pY = N[C@@H](Cc1ccc(OP(=O)(O)O)cc1)C(=O)O

On to CLASPA[pY]LSLSSE [phosphorylated TRPC6 Y284 peptide], for which the binding result is listed as “binds”.
